Results: the DeepSol protein solubility set

Assay: soluble on expression in E. coli; label from the status in PepcDB or PDB records

Sequence | soluble on expression in E. coli
MSLSEFEKYYPKISNLSTKLLDNPELGFKEYQTSKLIEDEIKSISPSIKVEHYLGTGLKVIFDNHKPKTIGIIAEMDDLYQPKHFKANPETGAAHACGHYTQVGIALAMINEIVKAERLKEFGTNLAFIFTPAEEFVDLDWRQEQKAKHKLDYFGGKQEAIKQGLFDHINYCVSVHAIGEEFKQRTVEINCDLAGFNFKYFDFYGEASHAAFAPESGVNAQSIATLFTTALALQRQQIKNPNRIRFNPVVIGENTESINVIPDHVKMGSDLSFFDIKYVQSLMKKFDQAAQGCASALGGKAKITTQVGYLPLHSNREMNALVKDTFLQEDRIPGLIENRGYTMAAGDIGDVGFIMPTIQIGYGGWTGTIHGSDFKLIDPEFVLKIFPEFVFNSTLNISNHLEKIDEYHHTKREYLKALKKMEGEGHHHHHH | not soluble
MISVTLSKIADVLGAEHRGADLTLDTVITDTRKVTPGCLFVALKGERFDAHDFADKAKANGAGALLVSRPLDIDLPQVIVKDTRQAFGQLAAWVRMQVPARVVALTGSSGKTSVKEMTAAILSQCGNTLYTAGNFNNDIGVPITLLRLNHDYDYAVIELGANHQGEIAWTVSLTRPEAALVNNLAAAHLEGFGSLAGVAKAKGEIYTGLPENGIAIMNADNNDWLNWQSIIGDRLVWRFSPNAANSDFTAANIHVTSHGTEFTLQTPMGSIDVLLPLPGRHNIANALAAAALSMAVGATLTAIKAGLAALKAVPGRLFPIQLSENQLVLDDAYNANVGSMTAAVQVLSEMPGYRVLVVGDMAELGAESEACHLQVGEAAKAAGIDRVLSTGKLSQAISHASGVGEHFADKAALIARLHALLQEQPMMTILVKGSRSAAMEDVVHALQEKGSC | not soluble
MLSKPMELLRPSKGMINVHPIQRGGILTEEARKVLLEWGDGYSMCDICLEGRVDLLDKPPVKRFKEEVAEFLGMDEVRFTAGARHAKFVAMSGFKGALVVDSLAHYTTYIAAELNGLRVYEVPNTGYPEFRIEAESYTDVFEKVKEETGDYPAVALLTHADYKYGNLADAKKVAEICRDYGIPLILNTAYTSGIMEVSGRETGCDFIVASGHKSWAATAPIGILATTFEFAERVFRVSEVRGNWSGRAFTKKEVALFGCSPVYGLPLVTLMASFPVVKERVKRWKEEVEKARWFVEEMEKIEGVMLLGERPKNHTLMNFETPSFNLIAKKHRRKGYFLYHELKERGIFGVQPGMTRNVKLNVYGLSWEEVERVAEAFKEIAEKYGLEVED | not soluble
MKFNCPLIVVNDINISRKFYEEVLCQKIKYDFGENVVYEGDFSLQLKSHFANMIDIDEKSIKFQSNGFELYFEEDNIEAFLNKLKQNKGINYIHSLLEHPWGQRVIRFYDPDMHIIEVGESMEGVIKRFFNEGMSIDEITKRTQHPLEFVKRVLHYKLTLEHHHHHH | soluble
MDFNLNDEQELFVAGIRELMASENWEAYFAECDRDSVYPERFVKALADMGIDSLLIPEEHGGLEAGFVTVAAVWMELGRLGAPTYVLYQLPGGFNTFLREGTQEQIDKIMAFRGTGKQMWNSAITEPGAGSDVGSLKTTYTRKNGKVYLNGSKCFITSSAYTPYIVVMARDGASPDKPVYTEWFVDMSKAGIKVNKLEKLGLRMDSCCEITFDDVELDEKDMFGREGNGFNRVKEEFDHERFLVALTNYGTAMCAFEDAARYANQRVQFGEAIGRFQLIQEKFAHMAIKLNSMKNMLLEAAWKADNGTITSGDAAMCKYFCANAAFEVVDTAMQVLGGVGIAGNHRITRFWRDLRVDRVSGGSDEMQILTLGRAVLKQYR | not soluble
DPFSNLTELANALKEKYQLKNVTVAFSQTNDYSEISKQISQSAAEYLEEIIHDDDILGVSWGTTMYKIAQKLSPQKAEIKVVQLKGGVSHSDVNTYAAETLALFGAAYDTAPVSLPLPVVLDNPLAKQMVEADRHIKNIIELGKKANIAIFTVGTVREEALLFRLGYFSDEEKIRLKEKAVGDICSRFFTINGEIADEKMNERTIGIDLQDLKQKETAILVAGGERKIKAIHGALRGGYANHFITDQYTAKQLLEQNFS | not soluble
MGSDKIHHHHHHMDYTRYVVQPGDSIYKIANAYKIEMSDIINLNHLKHPDRIYPGQILLLPTYEFKDTLPGEIPEPNFTYAMWLFDVYAGKDSELSAVTTYLYQAVVLDRPEFDELLRPIAYDELRHLEQLAWCIRFLGVDPRYGSFSKGRWFDWRSRYLNYSTELCVILDHNMKDEAAAVKHYTDLAQKIPIPEIQTILLQLAADEERHYQCLAQAKTRFCGCGSSQTQHIKESSNGEEL | not soluble
SAKFSKQSWGLENEALIVRCPRQGKPSYTVDWYYSQTNKSIPTQERNRVFASGQLLKFLPAAVADSGIYTCIVRSPTFNRTGYANVTIYKKQSDCNVPDYLMYSTVSGSEKNSKIYCPTIDLYNWTAPLEWFKNCQALQGSRYRAHKSFLVIDNVMTEDAGDYTCKFIHNENGANYSVTATRSFTVKDEQGFSLFPVIGAPAQNEIKEVEIGKNANLTCSACFGKGTQFLAAVLWQLNGTKITDFGEPRIQQEEGQNQSFSNGLACLDMVLRIADVKEEDLLLQYDCLALNLHGLRRHTVRLSRKNPSKECF | soluble
MSLKNLHPIMLAGTGSDVGKSVIAAALCRIFKQDGYRPAPFKAQNMALNSYATPEGLEIGRAQAVQAEAAGVPCHTDMNPLLLKPSSDHTSQVVLNGRPIGNRNAFEYFRKEGREELRQEVNAAFDRLAARYNPIVMEGAGSISEINLRDTDLVNMPMACYADADVILVADIDRGGVFASVYGSVMLQTPEDKKRIKGVIINKFRGDIRLFESGVKMMEDLCGIPVLGIIPYYRNIHIEEEDSVGLDYKRMQAVEGKINIAVVLLRHLSNFTDFNRLERDERVHLYYTNNTEDLAKADIILLPGSKSTLDDLYELRRNGVAQAVLRAHREGVTVMGICGGYQLMGLEIHDPEGVEGEIRQLPGLGLLPVITTMQGEKVTRQVNFHFLENAETCQGYEIHMGETRPVPGEAVVPLNKLEDGGEDGCFVNQKCMGSYIHGILDNQAFIDYLLEPYAEKLEEGHHHHHH | not soluble
SDKVINPQVAWAQRSSTTDPERNYVLITVSIADCDAPELTIKPSYIELKAQSKPHVGDENVHHYQLHIDLYKEIIPEKTMHKVANGQHYFLKLYKKDLESEYWPRLTKEKVKYPYIKTDFDKWVDADEQDEVEA | soluble
MELPLDKIKLPPGFSISVWANVPDARTMTLGDKGTVFVGSKSAGNVYAITENAGKRQIRIIASKLKMPNGVAFHDGALYVSSVNRILRFDNIENTLDQPLPPRIITADYPKETYHGWRFIAFGPDGWLYVPVGSSCNVCETDLEHYALISRIRPDGSNYEVFAKGVRNTEGFDWHPVTKALWFTDISREWMGDNLPPDELNHASNQGLDFGFPYCHGKEVSDPKLGAKRDCNKFIPPAVELDPHVAPMGMRFYTGTMFPAEYHNGIFIAEHGSWNRSTKIGYRLEWVQLEVNEVARKEIFAEGWLQENEAWGRPVDVLVMPDGALLVSDDMAGVVYRISYDQPLEHHHHHH | soluble
MKCQKDDPICHLRDDMQDGDNSVNRTVSHLFQLTLTILTRVYSNLNEISLVCQSWNLHAESSGIYKIPQKVQISLLKTFETNREAKSKNLLDPVLLDQFANQSIRAHSLLLLPYSTTRYKTWTGKTFSKHNLIDEFVGKSFECATESFCPDPCCSGIPSVVRSSSKYAPLCKMNSCQKASTCIVKHFENDDLSKLRLNQFNVNCGCEEPGTIYRPDIGRCVHHNPCTKQSLCRDFGQECVNTASGYKCVCQLGYFRNGSNSCAPLKFSAPVYHGFALSEEMDEL | not soluble
MGHHHHHHSHMHGECVKEEKDFLKKEIVDDTKVKEEPPINHPVGCKRKLAMSRCETCGTEEAKYRCPRCMRYSCSLPCVKKHKAELTCNGVRDKTAYISIQQFTEMNLLSDYRFLEDVARTADHISRDAFLKRPISNKYMYFMKNRARRQGINLKLLPNGFTKRKENSTFFDKKKQQFCWHVKLQFPQSQAEYIEKRVPDDKTINEILKPYIDPEKSDPVIRQRLKAYIRSQTGVQILMKIEYMQQNLVRYYELDPYKSLLDNLRNKVIIEYPTLHVVLKGSNNDMKVLHQVKSESTKNVGNEN | not soluble
MSLATTREEALHIHRENQGKLESKSKVPVRNARDLSLAYSPGVAEPCKEIFEDVETVYEYTMKGNMVAVVSNGTAVLGLGNIGPEASLPVMEGKAVLFKSFAGVDAFPICLRTTDVDQIVETVKLLEPTFGGVNLEDIAAPSCFEIEERLKKETNIPVFHDDQHGTAIVTLAGLINALKLTGKRMSEIKVVANGAGAAGIAIIKLMQRMGVRDIIMCDSKGAIYDGRPYGMNDMKAEVAKWTNRDKIDGGLGDVLKGADVFIGVSVAGALTKEMIENMNDDPIIFAMANPVPEIMPEEAKAAGAKVIGTGRSDFPNQVNNVLAFPGIFRGALDARATHINEEMKVAAVHAIADLVAEEDLDPDYVIPAPFDPRVAPAVAAAVAKTAMETGVARRKVDPAEVEAKTKKLAIIEEGHHHHHH | soluble
MSLGSVNRVYLARLSRMSVLGPLGESFGRVRDVVISISIVRQQPRVLGLVVDLATRRKIFIPILRVAAIEPHAVTLSTGNVSLHRFEQRPGEALALGQVLDTLVKVNDPALPELAGVDVVVTDLGVEQTRSRDWMVTRVAVRTQRRLRRRCPVHVVDWHNVAGLTPSALAMPGQDVAQLLDQFEGWKAVDVADAIRGLPPKRRHEVFKALHDKRLADVLQELPELDQAEVLSQLGTERAADVLEEMDPDDAADLLAVLNPTEAELLLTRMDPGDSGQVRRLLTHSPDTAGGLMTSDPVVLTPDTSIAEALARVRDPDLTPALASMVFVARPPTATPTGHYLGCVHLQRLLRDPPAELVGGVVDTDLLTLTPETPLAAVTRYFAAYNLVCGPVVDDENHLLGAVTVDDLLDHLLPHDWRVDMPELDPSGAPDRPGGPREGHHHHHH | soluble
MGSDKIHHHHHHMNIEDTLLKQDVWRFIDNTTINPAFDAIQSFATDDTLCRSVGARMAPSTVRGWVHEKTVSLGIQDSKLPDIDKGIAFLQEQGYRVVVRNSGGLAVVLDSGVLNLSMVLPDAERGIAIERGYETMFTLIKDMFVDCNEVIEAKEIEDSYCPGSYDLSIQGEKFAGISQRRMAKGVAVQIYLAIDGDQTTRSELIRDFYTISGKAKQTKYTFPDVNPNVMGSLSDLMKNDISLNGTLVRLFNSLRHYAGELVSGTLTSEELDLFPAYYERLIARNDKVLT | not soluble
MLQSGEWAYTEKLKEHFESPKNVLQGNDTSAFDGVGMEGNLQCGDQMMVAIKVDKESEKITDCQWKTYGCASAIASTSILSEMVKGMTLDQAFNISPKEVAKELGGLPENKIHCSVLGDKALRAAINDYFIRNGMSDRVQKVQARTVCQCMNVTDHDIEEAVLEGARTFYELQEHTKISTVCGQCREDAENELQKYIHLHFGS | soluble
MAHHHHHHMQVWGLVGRLTLPPSSSGKARKGSRRIPAADARLSKGSVNNRGRFVHNNRRMDNTLSVVVEKPAGLRRQWIAWPRGKSRDDPYEAIVPLLHISHYLPPVMAEAASCLDVKASFFPSLFTAGDSASLSMPRGGRHAGGADTTFNGIQGQPRNSPDYYYLGNRGGDDGGSPLWAAPPMVRIEVWIDNIRITGSKSDVTLWEAQVLRNADSCHAYLGGTANRALRNTLFWGYDLIKLTVRYP | not soluble
MAMRHLSRSRDVTKRSTKKYIEEPLYNRLFKDGGTEVKVRQQLNQFLKGTKHVFKWEVGDTIKKLRNRGLYYPALKLSEVMEERGMNKTVSDQAIHLDLVAKAREITAGENYFVDLPETSKTELTYGSLLNCYCKELLTEKAEGLLNKMKELNITPSSMSYNSLMTLYTKTGETEKVPAMIQELKAENVMPDSYTYNVWMRALAATNDISGVERVIEEMNRDGRVAPDWTTYSNMASIYVDAGLSQKAEKALQELEMKNTQRDFTAYQFLITLYGRLGKLTEVYRIWRSLRLAIPKTSNVAYLNMIQVLVKLNDLPGAETLFKEWQANCSTYDIRIVNVLIGAYAQEGLIQKANELKEKAPRRGGKLNAKTWEIFMDYYVKSGDMARALECMSKAVSIGKGDGGKWLPSPETVRALMSYFEQKKDVNGAENLLEILKNGTDNIGAEIFEPLIRTYAAAGKSHPAMRRRLKMENVEVNEATKKLLDEVSQDV | soluble
